From the supplement of paper PMC9112550, “Optimization of the antimicrobial peptide Bac7 by deep mutational scanning” (BMC Biology, 2022)

Tested on: Escherichia coli TOP10
Test: shrunken log2 fold change of peptide-encoding DNA abundance (4.5 h post-induction vs induction); higher = less antimicrobial activity (less host growth inhibition)
Conditions: time post-induction: 4.5 h; library: site-saturation at positions 5, 18, 19, 20
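Note: peptides expressed intracellularly from a pBAD plasmid library in pooled LB shake-flask culture, induced with 0.3% L-arabinose, DNA abundance read by NGS, three biological replicates, DESeq2 with apeglm shrinkage.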

Row | Sequence | shrunken log2 fold change
1 | RRIRVRPPRLPRPRPRPIQKPRP | -0.017
2 | RRIRTRPPRLPRPRPRPYNKPRP | -1.03
3 | RRIRVRPPRLPRPRPRPLHDPRP | -0.41
4 | RRIRKRPPRLPRPRPRPPFPPRP | 0.582
5 | RRIRYRPPRLPRPRPRPHFSPRP | -0.256
6 | RRIRGRPPRLPRPRPRPNEDPRP | 0.468
7 | RRIRVRPPRLPRPRPRPRTTPRP | 0.378
8 | RRIRARPPRLPRPRPRPTMEPRP | 0.564
9 | RRIRSRPPRLPRPRPRPEMEPRP | 0.00902
10 | RRIRVRPPRLPRPRPRPHKLPRP | -0.317
11 | RRIRGRPPRLPRPRPRPLLLPRP | 0.607
12 | RRIRLRPPRLPRPRPRPFYDPRP | 0.00534
13 | RRIRLRPPRLPRPRPRPECAPRP | 0.65
14 | RRIRPRPPRLPRPRPRPDAIPRP | 0.148
15 | RRIRERPPRLPRPRPRPVLQPRP | -0.347
16 | RRIRSRPPRLPRPRPRPMEPPRP | 0.0473
17 | RRIRDRPPRLPRPRPRPGASPRP | 1.08
18 | RRIRHRPPRLPRPRPRPQRAPRP | 0.205
19 | RRIRCRPPRLPRPRPRPCDFPRP | -0.0328
20 | RRIRNRPPRLPRPRPRPTWGPRP | -0.00179
21 | RRIRARPPRLPRPRPRPVFEPRP | 0.41
22 | RRIRYRPPRLPRPRPRPQIEPRP | 0.0413
23 | RRIRFRPPRLPRPRPRPCRLPRP | -0.209
24 | RRIRVRPPRLPRPRPRPNDDPRP | -0.299
25 | RRIRNRPPRLPRPRPRPNGVPRP | -0.0397

Row | Sequence | shrunken log2 fold change
26 | RRIRFRPPRLPRPRPRPIPCPRP | -0.256
27 | RRIRARPPRLPRPRPRPIICPRP | 0.106
28 | RRIRDRPPRLPRPRPRPGWFPRP | 0.297
29 | RRIRERPPRLPRPRPRPIPLPRP | -0.275
30 | RRIRNRPPRLPRPRPRPHYIPRP | -0.842
31 | RRIRQRPPRLPRPRPRPCNFPRP | 0.0393
32 | RRIRGRPPRLPRPRPRPDAMPRP | 2.4
33 | RRIRRRPPRLPRPRPRPSYAPRP | 0.0616
34 | RRIRTRPPRLPRPRPRPDPIPRP | 0.03
35 | RRIRPRPPRLPRPRPRPVLGPRP | 0.122
36 | RRIRMRPPRLPRPRPRPCPNPRP | 0.0197
37 | RRIRMRPPRLPRPRPRPLAAPRP | 2.64
38 | RRIRKRPPRLPRPRPRPCVCPRP | 0.0462
39 | RRIRRRPPRLPRPRPRPKNMPRP | -0.00338
40 | RRIRLRPPRLPRPRPRPAYAPRP | -0.0747
41 | RRIRYRPPRLPRPRPRPQWEPRP | -0.0193
42 | RRIRWRPPRLPRPRPRPCLDPRP | -0.0586
43 | RRIRSRPPRLPRPRPRPMHNPRP | -0.179
44 | RRIRHRPPRLPRPRPRPKWHPRP | -0.108
45 | RRIRTRPPRLPRPRPRPKKDPRP | -0.147
46 | RRIRKRPPRLPRPRPRPLLHPRP | 0.108
47 | RRIRNRPPRLPRPRPRPPMKPRP | -0.216
48 | RRIRKRPPRLPRPRPRPHYKPRP | -0.446
49 | RRIRQRPPRLPRPRPRPPYAPRP | -0.189
50 | RRIRPRPPRLPRPRPRPISTPRP | -0.324

Row | Sequence | shrunken log2 fold change
51 | RRIRWRPPRLPRPRPRPRNSPRP | 0.0821
52 | RRIRSRPPRLPRPRPRPVPCPRP | -0.226
53 | RRIRGRPPRLPRPRPRPVDHPRP | 0.193
54 | RRIRHRPPRLPRPRPRPQNEPRP | -0.133
55 | RRIRVRPPRLPRPRPRPTMIPRP | 0.0351
56 | RRIRHRPPRLPRPRPRPGEYPRP | -0.219
57 | RRIRDRPPRLPRPRPRPSFIPRP | -0.572
58 | RRIRPRPPRLPRPRPRPWRLPRP | 0.0836
59 | RRIRMRPPRLPRPRPRPRFIPRP | -0.154
60 | RRIRMRPPRLPRPRPRPCMWPRP | 0.138
61 | RRIRCRPPRLPRPRPRPRILPRP | -0.567
62 | RRIRDRPPRLPRPRPRPPHKPRP | 0.0115
63 | RRIRIRPPRLPRPRPRPKCNPRP | -0.701
64 | RRIRERPPRLPRPRPRPEKAPRP | -0.0229
65 | RRIRMRPPRLPRPRPRPYMMPRP | -0.111
66 | RRIRARPPRLPRPRPRPMEMPRP | 0.163
67 | RRIRWRPPRLPRPRPRPCKYPRP | -0.509
68 | RRIRLRPPRLPRPRPRPTVPPRP | -0.0925
69 | RRIRVRPPRLPRPRPRPKMVPRP | -0.109
70 | RRIRHRPPRLPRPRPRPPIMPRP | -0.285
71 | RRIRMRPPRLPRPRPRPLDNPRP | 0.957
72 | RRIRDRPPRLPRPRPRPRKTPRP | 0.379
73 | RRIRRRPPRLPRPRPRPLRSPRP | 0.531
74 | RRIRARPPRLPRPRPRPRPCPRP | 0.426
75 | RRIRSRPPRLPRPRPRPMTSPRP | -0.0553

Row | Sequence | shrunken log2 fold change
76 | RRIRMRPPRLPRPRPRPGDMPRP | 0.484
77 | RRIRHRPPRLPRPRPRPSFCPRP | -0.507
78 | RRIRYRPPRLPRPRPRPQMHPRP | -0.748
79 | RRIRQRPPRLPRPRPRPQVCPRP | 0.0103
80 | RRIRLRPPRLPRPRPRPIRDPRP | -0.0112
81 | RRIRSRPPRLPRPRPRPVHHPRP | 0.0874
82 | RRIRQRPPRLPRPRPRPVCKPRP | 0.0434
83 | RRIRCRPPRLPRPRPRPVIGPRP | -0.18
84 | RRIRRRPPRLPRPRPRPEDNPRP | 0.066
85 | RRIRGRPPRLPRPRPRPERKPRP | 0.92
86 | RRIRVRPPRLPRPRPRPAVAPRP | 0.266
87 | RRIRHRPPRLPRPRPRPKADPRP | 0.117
88 | RRIRYRPPRLPRPRPRPEYCPRP | -0.414
89 | RRIRGRPPRLPRPRPRPEVFPRP | 1.38
90 | RRIRDRPPRLPRPRPRPHTNPRP | -0.367
91 | RRIRTRPPRLPRPRPRPDDDPRP | -0.00136
92 | RRIRMRPPRLPRPRPRPVLRPRP | 0.106
93 | RRIRSRPPRLPRPRPRPAWCPRP | 0.545
94 | RRIRLRPPRLPRPRPRPLIGPRP | 0.0224
95 | RRIRPRPPRLPRPRPRPYMDPRP | -0.447
96 | RRIRRRPPRLPRPRPRPYTTPRP | -0.354
97 | RRIRQRPPRLPRPRPRPNKIPRP | -0.388
98 | RRIRLRPPRLPRPRPRPKGDPRP | 0.182
99 | RRIRNRPPRLPRPRPRPQGWPRP | 0.114
100 | RRIRMRPPRLPRPRPRPTQNPRP | 1.18

Row | Sequence | shrunken log2 fold change
101 | RRIRVRPPRLPRPRPRPLPHPRP | 0.0915
102 | RRIRTRPPRLPRPRPRPSSGPRP | 0.11
103 | RRIRVRPPRLPRPRPRPLNSPRP | -0.298
104 | RRIRIRPPRLPRPRPRPCMIPRP | -0.502
105 | RRIRMRPPRLPRPRPRPWKAPRP | 0.0518
106 | RRIRARPPRLPRPRPRPYYPPRP | -0.349
107 | RRIRHRPPRLPRPRPRPQNQPRP | -0.563
108 | RRIRHRPPRLPRPRPRPSPIPRP | -0.175
109 | RRIRARPPRLPRPRPRPTDTPRP | 0.535
110 | RRIRHRPPRLPRPRPRPVSFPRP | 0.00493
111 | RRIRLRPPRLPRPRPRPYHQPRP | -0.026
112 | RRIRTRPPRLPRPRPRPDRAPRP | -0.438
113 | RRIRKRPPRLPRPRPRPVGTPRP | 2.46
114 | RRIRWRPPRLPRPRPRPDRQPRP | -0.018
115 | RRIRRRPPRLPRPRPRPTKWPRP | 0.0371
116 | RRIRARPPRLPRPRPRPACGPRP | 0.582
117 | RRIRKRPPRLPRPRPRPFHKPRP | -0.00277
118 | RRIRCRPPRLPRPRPRPDIMPRP | -0.0409
119 | RRIRTRPPRLPRPRPRPMHKPRP | -0.271
120 | RRIRERPPRLPRPRPRPNLAPRP | -0.194
121 | RRIRPRPPRLPRPRPRPHVNPRP | -0.38
122 | RRIRARPPRLPRPRPRPAEIPRP | 0.233
123 | RRIRGRPPRLPRPRPRPNRCPRP | 0.422
124 | RRIRQRPPRLPRPRPRPTFHPRP | 0.199
125 | RRIRERPPRLPRPRPRPSPFPRP | -0.972
